Drawing on PMC11260460, “A Plasmodium apicoplast-targeted unique exonuclease/FEN exhibits interspecies functional differences attributable to an insertion that alters DNA-binding”, this text covers binding result and binding signal for five molecules.

The target of series [1] is T1, PfExo (Plasmodium falciparum 3D7, UniProt O96139 91-577).
T1 sequence: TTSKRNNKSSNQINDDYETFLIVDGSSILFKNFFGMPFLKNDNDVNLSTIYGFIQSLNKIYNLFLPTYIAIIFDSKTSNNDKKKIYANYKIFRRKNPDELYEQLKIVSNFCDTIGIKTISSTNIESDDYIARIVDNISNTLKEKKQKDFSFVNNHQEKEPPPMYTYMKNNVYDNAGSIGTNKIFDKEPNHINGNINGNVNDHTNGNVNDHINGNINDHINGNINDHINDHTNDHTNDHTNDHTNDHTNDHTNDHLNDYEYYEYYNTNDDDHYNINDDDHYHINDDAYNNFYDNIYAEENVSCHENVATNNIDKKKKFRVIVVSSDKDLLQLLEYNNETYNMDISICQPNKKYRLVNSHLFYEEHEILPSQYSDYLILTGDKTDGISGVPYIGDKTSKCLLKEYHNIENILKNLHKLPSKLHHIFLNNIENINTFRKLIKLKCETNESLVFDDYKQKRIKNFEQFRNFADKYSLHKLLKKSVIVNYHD
Briefly: EMSA; 2 mM Mg2+; EMSA: 400 nM FAM-DNA, binding buffer as printed 200 mM HEPES pH 8.0, 500 mM NaCl, 10 mM DTT, 1 mg/ml BSA, 10% glycerol, 2 mM MgCl2, 30 min on ice, 6% native PAGE; BLI: 1x kinetic buffer in 1x PBS, Octet R8, 1:1 global fit. The conditions noted are these: protein: recombinant, tags: C-terminal 6xHis. (Mobility shift assays separate free from complexed probe on a gel.)

Series [2] has as its target T2, PfExoΔins (Plasmodium falciparum 3D7, UniProt O96139 91-577, del241-393). Put plainly: BLI; EMSA: 400 nM FAM-DNA, binding buffer as printed 200 mM HEPES pH 8.0, 500 mM NaCl, 10 mM DTT, 1 mg/ml BSA, 10% glycerol, 2 mM MgCl2, 30 min on ice, 6% native PAGE; BLI: 1x kinetic buffer in 1x PBS, Octet R8, 1:1 global fit. The note with it: protein: recombinant; tags: C-terminal 6xHis; label: 5' biotin on strand 1; blunt. On the technique in general: BLI is a label-free optical method that tracks binding on a fibre tip over time.

Series [3] deals with T1, PfExo. Briefly: BLI; KD value only in figure; EMSA: 400 nM FAM-DNA, binding buffer as printed 200 mM HEPES pH 8.0, 500 mM NaCl, 10 mM DTT, 1 mg/ml BSA, 10% glycerol, 2 mM MgCl2, 30 min on ice, 6% native PAGE; BLI: 1x kinetic buffer in 1x PBS, Octet R8, 1:1 global fit. The conditions noted are these: protein: recombinant; tags: C-terminal 6xHis; label: 5' biotin on strand 1; blunt.

Series [4] concerns the target T2, PfExoΔins. Put plainly: EMSA; 2 mM Mg2+; EMSA: 400 nM FAM-DNA, binding buffer as printed 200 mM HEPES pH 8.0, 500 mM NaCl, 10 mM DTT, 1 mg/ml BSA, 10% glycerol, 2 mM MgCl2, 30 min on ice, 6% native PAGE; BLI: 1x kinetic buffer in 1x PBS, Octet R8, 1:1 global fit. The conditions noted are these: protein: recombinant, tags: C-terminal 6xHis.

B1: ssDNA 5'-3' exo substrate (ssDNA)
DNA: AAAACGTCAACTAGCTTCTCAAACACCTCATATATCTTAA
For B1, the binding result in series [1] (label: 3' 6-FAM, single strand) is on record as “binds”.

B2: ssDNA 3'-5' exo substrate (ssDNA)
DNA: AAAACGTCAACTAGCTTCTCAAACAGCTCATATATCTTAA
Regarding B2, the binding result in series [1] (label: 5' 6-FAM, single strand) is listed as “binds”.

B3: BLI blunt-end dsDNA (34 bp) (dsDNA)
DNA 1: CAGTCCGAGCTAGGCAACATACGATAATCCATAC
DNA 2: GTATGGATTATCGTATGTTGCCTAGCTCGGACTG
With B3, the binding signal in series [2] was roughly 5 fold higher KD than PfExo. Moreover, the binding result in series [3] is “binds”.

B4: 5'-flap DNA (dsDNA)
DNA 1: AAAACGTCAACTAGCTTCTCAAACAGCTCATATATCTTAA
DNA 2: CAGTCCGAGCTAGGCAACATACGATAATCCATAC
DNA 3: TTAAGATATATGAGCAGTATGGATTATCGTATGTTGCCTAGCTCGGACTG
In the case of B4, the binding result in series [4] (label: FAM, 5' flap) is listed as “no binding”; in series [1] (label: FAM, 5' flap), “binds”.

B5: Blunt-end dsDNA (14 bp) (dsDNA)
DNA 1: CTAGTGTACATGCA
DNA 2: TGCATGTACACTAG
Consider B5, for which the binding result in series [4] (label: 3' 6-FAM on strand 1, blunt) is on record as “no binding”.
